B1: DGI-2-40F-4-E1130 (peptide, not shown: large carriers)
peptide: VCRLCRLCRFSMRCGGLSLVLGSAAAFFCEVFVGFCVAAAGAPVPYPDPLEPRP
B2: DGI-2-40F-3-C10 (peptide, not shown: large carriers)
peptide: WRARSSGYLFALTPNFGVPHPSSALRRMHGLMARDLRPVAAAGAPVPYPDPLEPRP
B3: DGI-2-40F-3-D1 (peptide, not shown: large carriers)
peptide: MGQGFHYNRQPYMSHQCYAFTFSTPFLDGDRIPHGVSRGLAAAGAPVPYPDPLEPRP
B4: DGI-2-40F-3-B1 (peptide, not shown: large carriers)
peptide: HGTRLRGVDYVMTWAGWQGYSSRKHVQQAVAGSSPGSDELAAAGAPVPYPDPLEPRP
B5: DGI-2-40F-3-B72 (peptide, not shown: large carriers)
peptide: PKDGAAFKGSDFIQGGQTVMERAPALWWRDGGGQWEAPSTAAAGAPVPYPDPLEPRP
B6: DGI-2-40F-3-D3 (peptide, not shown: large carriers)
peptide: VQFAMTLSSRLWQHARHPLTDDAPPTVSFGTRRETLAGKAAAAGAPVPYPDPLEPRP
B7: DGI-2-40F-3-A12 (peptide, not shown: large carriers)
peptide: RRTQPAYRSGADDRTSGFYCYVTSALSAGAWMPFLPRRLAAAAGAPVPYPDPLEPRP
B8: DGI-2-40F-3-C7 (peptide, not shown: large carriers)
peptide: HPWVTNMLVFQRPPPPGFWLSDTTPRQRNGLGQVERPSVDAAAGAPVPYPDPLEPRP
B9: DGI-2-40F-3-B4 (peptide, not shown: large carriers)
peptide: LWLPCGLLVRPAQFYFYFSPLRHFLSSSVGSLSFPLSLLVAAAGAPVPYPDPLEPRP
B10: DGI-2-40F-3-A8 (peptide, not shown: large carriers)
peptide: GQISLAGVAVCSSERMLLAFSSRVFLPGLKVPVTTSQRGSAAAGAPVPYPDPLEPRP
B11: DGI-2-40F-3-C52 (peptide, not shown: large carriers)
peptide: GLLFTSSPYQCFWVHCTLTMSPLSVLGDLSSTIGRMRASRAAAGAPVPYPDPLEPRP
B12: DGI-2-40F-3-D9 (peptide, not shown: large carriers)
peptide: RRTSADTDQLSRWEGAQAFSSLRSALSERLDSLRPGLPPSAAAGAPVPYPDPLEPRP
B13: DGI-2-40F-3-B6 (peptide, not shown: large carriers)
peptide: QSNVWVLVGVIMQGVWYQRQHYCVYVMLLSDQVSVLLAVAAAAGAPVPYPDPLEPRP
B14: DGI-2-40F-3-A1 (SEQ ID NO: 187) (peptide, not shown: large carriers)
peptide: QYFARGSFQFGLSHVLSAAAAFHLYVFCKRLSRGFGIKDDAAAGAPVPYPDPLEPRP
B15: DGI-2-40F-3-B95 (peptide, not shown: large carriers)
peptide: DYKTCVSQHVHPLFGEYFYHKVTHMSILSPTFRVTSLYGKAAAGAPVPYPDPLEPRP
B16: DGI-2-40F-3-A7 (peptide, not shown: large carriers)
peptide: CAYRWGLFRGPGRVDYDLQVVGIMMWPGPIPDRSSRGSVAAAAGAPVPYPDPLEPRP
B17: DGI-2-40F-3-B5 (peptide, not shown: large carriers)
peptide: RSRSSSGASGSMLRVQNHMVLGSWMVRQPMGSMTPFHGHGAAAGAPVPYPDPLEPRP

Target: lactate dehydrogenase (LDH)
Assay: phage ELISA, 405 nm; LDH coated

LDH (OD) | Binder
0.9 OD | B1
0.9 OD | B2
0.8 OD | B3
0.8 OD | WFTHVVEKFAAAGAPVPYPDPLEPRP (peptide, not shown: large carriers) [DGI-2-40F-3-A4]
0.7 OD | B4
0.7 OD | B5
0.9 OD | GEVDCVYALTHRFLSPQVQYHHRPVAAAGAPVPYPDPLEPRP (peptide, not shown: large carriers) [DGI-2-20C-3-A12]
0.9 OD | FSSVLGLLDRRGVPVVVGEDAAAGAPVPYPDPLEPRP (peptide, not shown: large carriers) [DGI-2-20F-3-C3]
0.9 OD | B6
0.8 OD | B7
0.9 OD | DYKGRTMTSPIMSALPVYDRLHGAIGSRGQNMDAAAGAPVPYPDPLEPRP (peptide, not shown: large carriers) [DGI-2-20C-3-B3]
0.8 OD | B8
1 OD | LVIQCSASVVACDLYWNYVGCLAAGAAAGAPVPYPDPLEPRP (peptide, not shown: large carriers) [DGI-2-20C-3-D12]
1 OD | MAVLPAARDFGGVVQGGVSGAAAGAPVPYPDPLEPRP (peptide, not shown: large carriers) [DGI-2-20F-3-C2]
0.8 OD | B9
0.9 OD | RCFQDGRMLALSPTYLIRRSVSPLVVGPLPTPAAAGAPVPYPDPLEPRP (peptide, not shown: large carriers) [DGI-2-40F-3-A24]
1.1 OD | LHRLGQSMGGTLDHLQGWGVAAAGAPVPYPDPLEPRP (peptide, not shown: large carriers) [DGI-2-20R-4-E5]
0.8 OD | B10
0.8 OD | B11
0.8 OD | B12
0.8 OD | B13
0.9 OD | LSRIWRGVIESAREVESRGIAAAGAPVPYPDPLEPRP (peptide, not shown: large carriers) [DGI-2-20F-3-B1]
0.9 OD | LGNASSLIPFLRSVQESGVRAAAGAPVPYPDPLEPRP (peptide, not shown: large carriers) [DGI-2-20F-3-C5]
0.7 OD | B14
0.8 OD | B15
0.8 OD | B16
0.9 OD | B17

Target: DGI-2 polypeptide (UniProt Q15004)
Assay: phage ELISA, 405 nm; DGI-2 coated

Chain of DGI-2 polypeptide (Q15004 whole entry): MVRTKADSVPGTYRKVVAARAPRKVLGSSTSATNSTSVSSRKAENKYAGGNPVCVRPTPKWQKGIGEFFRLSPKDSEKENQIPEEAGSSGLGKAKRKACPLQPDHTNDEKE

DGI-2 (OD) | Binder
2.9 OD | B1
1.1 OD | B2
1.1 OD | WFTHVVEKFAAAGAPVPYPDPLEPRP (peptide, not shown: large carriers) [DGI-2-40F-3-A4]
0.9 OD | GEVDCVYALTHRFLSPQVQYHHRPVAAAGAPVPYPDPLEPRP (peptide, not shown: large carriers) [DGI-2-20C-3-A12]
0.8 OD | DYKGRTMTSPIMSALPVYDRLHGAIGSRGQNMDAAAGAPVPYPDPLEPRP (peptide, not shown: large carriers) [DGI-2-20C-3-B3]
1 OD | LGNASSLIPFLRSVQESGVRAAAGAPVPYPDPLEPRP (peptide, not shown: large carriers) [DGI-2-20F-3-C5]

Target: DGI-2 polypeptide (UniProt Q15004)
Assay: phage ELISA

DGI-2 (OD) | DGI-2/LDH | Binder
1.4 OD | 1.9 | GRAGTSMTELVAWGFVQRVGAAAGAPVPYPDPLEPRP [DGI-2-20F-PP-H10]

Target: DGI-2 polypeptide (UniProt Q15004)
Assay: phage ELISA, 405 nm; DGI-2 signal over LDH signal

DGI-2/LDH (OD) | Binder
3.2 | B1
1.3 | B2
1.3 | WFTHVVEKFAAAGAPVPYPDPLEPRP (peptide, not shown: large carriers) [DGI-2-40F-3-A4]
1 | GEVDCVYALTHRFLSPQVQYHHRPVAAAGAPVPYPDPLEPRP (peptide, not shown: large carriers) [DGI-2-20C-3-A12]
0.9 | DYKGRTMTSPIMSALPVYDRLHGAIGSRGQNMDAAAGAPVPYPDPLEPRP (peptide, not shown: large carriers) [DGI-2-20C-3-B3]
1 | LGNASSLIPFLRSVQESGVRAAAGAPVPYPDPLEPRP (peptide, not shown: large carriers) [DGI-2-20F-3-C5]

Target: antibody raised against ETAG
Assay: phage ELISA, 405 nm; anti-E-tag antibody coated

ETAG (OD) | Binder
8.3 OD | B1
7.7 OD | B2
6.7 OD | WFTHVVEKFAAAGAPVPYPDPLEPRP (peptide, not shown: large carriers) [DGI-2-40F-3-A4]
8.1 OD | GEVDCVYALTHRFLSPQVQYHHRPVAAAGAPVPYPDPLEPRP (peptide, not shown: large carriers) [DGI-2-20C-3-A12]
7.7 OD | DYKGRTMTSPIMSALPVYDRLHGAIGSRGQNMDAAAGAPVPYPDPLEPRP (peptide, not shown: large carriers) [DGI-2-20C-3-B3]
17.7 OD | LGNASSLIPFLRSVQESGVRAAAGAPVPYPDPLEPRP (peptide, not shown: large carriers) [DGI-2-20F-3-C5]

Target: lactate dehydrogenase (LDH)
Assay: phage ELISA; LDH coated

LDH (ratio over background) | Binder
0.9 | SRLALSSQHGLSLVAGRRRGGAPVPYPDPLEPR (peptide, not shown: large carriers) [DGI9-20M-4-A12]
1 | MAGFRGSGLSGYSEARLPRVGAPVPYPDPLEPR (peptide, not shown: large carriers) [DGI9-20M-4-E3]
0.9 | WDWSRFGAQLRGAILGRATGGAPVPYPDPLEPR (peptide, not shown: large carriers) [DGI9-20M-4-A627]
1.1 | FLLQDFIMDAGSFVKPIGVGGAPVPYPDPLEPR (peptide, not shown: large carriers) [DGI9-20M-4-A414]

Reference: patent US7056679
